Assay results taken from patent US20160237162A1.

Experiments:
[1] = target: human HER3 on human cancer cells (human) (UniProt P21860)
[2] = target: human HER3 on human cancer cells (human) (UniProt P21860); remark: listed apart in the source
[3] = target: human HER3 on human cancer cells (human) (UniProt P21860); remark: listed apart in the source
[4] = target: human HER3 on human cancer cells (human) (UniProt P21860); remark: listed apart in the source
[5] = target: human HER3 on human cancer cells (human) (UniProt P21860); remark: listed apart in the source
[6] = target: human HER3 on human cancer cells (human) (UniProt P21860); remark: listed apart in the source
[7] = target: human HER3 on human cancer cells (human) (UniProt P21860); remark: listed apart in the source
[8] = target: human HER3 on human cancer cells (human) (UniProt P21860); remark: listed apart in the source
[9] = target: human HER3 on human cancer cells (human) (UniProt P21860); remark: listed apart in the source
[10] = target: human HER3 on human cancer cells (human) (UniProt P21860); remark: listed apart in the source
[11] = target: human HER3 on human cancer cells (human) (UniProt P21860); remark: listed apart in the source
[12] = target: human HER3 on human cancer cells (human) (UniProt P21860); test: cell-based or functional assay

AMG anti-HER3 monoclonal antibody (U1-59)
IC50; growth suppression (CellTiter-Glo, 6 days), HMCB melanoma cells [1]: 1.73 mg/L | IC50; suppression of pAKT (Meso-Scale Discovery assay), MKN45 cells [2]: 15.8 ng/ml | Maximum inhibition %; suppression of pAKT (Meso-Scale Discovery assay), MKN45 cells [2]: 38% | IC50; suppression of pAKT (Meso-Scale Discovery assay), BT-474 cells [3]: > 10 µg/ml | Max inhibition%; suppression of pAKT (Meso-Scale Discovery assay), BT-474 cells [3]: 1% | IC50; suppression of pHER3 (pHER3 ELISA), HCC827 cells [4]: 23 ng/ml | Maximum inhibition %; suppression of pHER3 (pHER3 ELISA), HCC827 cells [4]: 41% | IC50; growth suppression (CellTiter-Glo, 6 days), MDA-MB-175 cells [5]: 0.99 mg/L | Maximum inhibition %; growth suppression (CellTiter-Glo, 6 days), MDA-MB-175 cells [5]: 39% | IC50; suppression of pHER3 (pHER3 ELISA), MKN45 cells [6]: 16.1 ng/ml | Maximum inhibition %; suppression of pHER3 (pHER3 ELISA), MKN45 cells [6]: 58% | IC50; suppression of pHER3 (pHER3 ELISA), EGFR-TKI (gefitinib)-resistant HCC827 cells [7]: 31 ng/ml | Maximum inhibition %; suppression of pHER3 (pHER3 ELISA), EGFR-TKI (gefitinib)-resistant HCC827 cells [7]: 24% | IC50; suppression of pAKT (Meso-Scale Discovery assay), Kato III cells [8]: 6.2 ng/ml | Maximum inhibition %; suppression of pAKT (Meso-Scale Discovery assay), Kato III cells [8]: 22% | IC50; suppression of pHER3 (pHER3 ELISA), Kato III cells [9]: 9.6 ng/ml | Maximum inhibition %; suppression of pHER3 (pHER3 ELISA), Kato III cells [9]: 62% | IC50; suppression of pHER3 (pHER3 ELISA), BT-474 cells [10]: > 10 µg/ml | IC50; suppression of HRG-induced pHER3 (pHER3 ELISA), MCF-7 cells [11]: 33 ng/ml | Maximum inhibition %; suppression of HRG-induced pHER3 (pHER3 ELISA), MCF-7 cells [11]: 77% | fold decrease in pHER3 ELISA in HCC827 cells; potency against 2C2 [12]: 10 fold | pHER3 ELISA in Kato III cells, maximal pHER3 suppression [12]: 60%
